Test [1] concerns the target T1, His-tagged eIF5B (587–1220) (UniProt O60841 587-1220).
T1 construct: eIF5B, residues 587–1220; The methods describe only the GST-fused eIF5B; also called purified eIF5B; source: purified
T1 sequence (looked up): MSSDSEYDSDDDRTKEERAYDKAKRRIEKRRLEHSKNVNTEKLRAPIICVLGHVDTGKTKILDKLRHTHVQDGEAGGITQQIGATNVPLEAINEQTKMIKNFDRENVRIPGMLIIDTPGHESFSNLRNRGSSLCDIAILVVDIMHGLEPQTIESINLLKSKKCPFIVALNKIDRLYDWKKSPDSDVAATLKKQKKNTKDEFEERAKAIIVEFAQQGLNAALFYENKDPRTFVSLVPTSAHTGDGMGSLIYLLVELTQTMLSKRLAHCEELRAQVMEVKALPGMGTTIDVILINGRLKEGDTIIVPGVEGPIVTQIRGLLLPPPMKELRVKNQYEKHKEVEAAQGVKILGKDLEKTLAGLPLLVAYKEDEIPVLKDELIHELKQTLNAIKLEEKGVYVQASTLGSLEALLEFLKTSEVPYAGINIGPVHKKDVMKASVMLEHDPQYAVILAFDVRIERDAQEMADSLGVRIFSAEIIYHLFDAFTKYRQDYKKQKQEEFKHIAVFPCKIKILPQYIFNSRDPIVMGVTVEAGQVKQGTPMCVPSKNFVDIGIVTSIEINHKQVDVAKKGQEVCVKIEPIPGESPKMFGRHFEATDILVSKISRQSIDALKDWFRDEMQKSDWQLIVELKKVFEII
Kind of test: co-IP; purified His-tagged eIF5B (587–1220) and GST-fused eIF2A (462–501) mixed; the former precipitated with an anti-His-conjugated resin; western blotting with anti-GST. Particulars: both partners purified. On the technique in general: A western blot detects proteins with antibodies after separation by electrophoresis.

Test [2] addresses T2, GST-fused ΔeIF5B(587–1220) (UniProt O60841 587-1220).
T2 construct: eukaryotic initiation factor 5B (eIF5B), residues 587–1220, lacking the N-terminal region; also called GST–eIF5B; GST–eIF5B (587–1220); source: E. coli BL21, purified
T2 sequence (looked up): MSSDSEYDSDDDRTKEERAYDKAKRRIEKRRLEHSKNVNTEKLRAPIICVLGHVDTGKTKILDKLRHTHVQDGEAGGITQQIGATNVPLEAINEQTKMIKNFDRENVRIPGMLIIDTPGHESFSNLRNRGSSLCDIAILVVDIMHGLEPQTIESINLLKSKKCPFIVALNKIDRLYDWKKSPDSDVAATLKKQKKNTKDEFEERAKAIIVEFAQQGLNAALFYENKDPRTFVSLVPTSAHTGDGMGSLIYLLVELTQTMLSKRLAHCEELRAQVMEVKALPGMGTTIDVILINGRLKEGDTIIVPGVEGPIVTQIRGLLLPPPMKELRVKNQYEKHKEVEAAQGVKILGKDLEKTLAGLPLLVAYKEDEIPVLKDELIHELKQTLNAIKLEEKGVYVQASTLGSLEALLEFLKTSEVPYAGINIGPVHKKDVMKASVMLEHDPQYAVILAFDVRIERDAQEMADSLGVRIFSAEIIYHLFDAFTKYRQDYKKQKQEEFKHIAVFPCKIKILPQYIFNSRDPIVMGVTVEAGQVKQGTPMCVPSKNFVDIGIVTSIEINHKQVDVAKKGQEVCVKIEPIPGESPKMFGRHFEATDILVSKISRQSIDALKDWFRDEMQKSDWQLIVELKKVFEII
Nature of the test: pull-down; GST pull-down with recombinant proteins purified from E. coli extracts; GST fusions as bait, His–eIF2A detected by western blotting with anti-His. The conditions noted are these: both partners purified.

B1: GST–eIF2A (462–501) (domain or fragment, human, UniProt Q9BY44 462-501, looked up)
chain: HEEEPPQNMKPQSGNDKPLSKTALKNQRKHEAKKAAKQEA
notes: also called M domain; source: E. coli BL21, purified
As to B1, the binding result in test [1] is recorded as “binds”.

B2: His-tagged eIF2A (natural protein, human, UniProt Q9BY44 1-585, looked up)
chain: MAPSTPLLTVRGSEGLYMVNGPPHFTESTVFPRESGKNCKVCIFSKDGTLFAWGNGEKVNIISVTNKGLLHSFDLLKAVCLEFSPKNTVLATWQPYTTSKDGTAGIPNLQLYDVKTGTCLKSFIQKKMQNWCPSWSEDETLCARNVNNEVHFFENNNFNTIANKLHLQKINDFVLSPGPQPYKVAVYVPGSKGAPSFVRLYQYPNFAGPHAALANKSFFKADKVTMLWNKKATAVLVIASTDVDKTGASYYGEQTLHYIATNGESAVVQLPKNGPIYDVVWNSSSTEFCAVYGFMPAKATIFNLKCDPVFDFGTGPRNAAYYSPHGHILVLAGFGNLRGQMEVWDVKNYKLISKPVASDSTYFAWCPDGEHILTATCAPRLRVNNGYKIWHYTGSILHKYDVPSNAELWQVSWQPFLDGIFPAKTITYQAVPSEVPNEEPKVATAYRPPALRNKPITNSKLHEEEPPQNMKPQSGNDKPLSKTALKNQRKHEAKKAAKQEARSDKSPDLAPTPAPQSTPRNTVSQSISGDPEIDKKIKNLKKKLKAIEQLKEQAATGKQLEKNQLEKIQKETALLQELEDLELGI
notes: eukaryotic initiation factor 2A (eIF2A); also called His–eIF2A; eukaryotic initiation factor 2A; source: E. coli M15 (plasmid pQE31/His–eIF2A), purified
With B2, the binding result in test [2] is on record as “binds”.
